In publication PMC5967604:

Assays:
[1] = target: OSM-3G444E^Halo (C. elegans) (UniProt P46873); test: single-molecule colocalisation of differentially labelled proteins
[2] = target: OSM-3^SNAP (C. elegans) (UniProt P46873); test: as above

Question: How did the colocalisation efficiency [1] turn out when “QCC with GFP-tagged IFT-52(OSM-6), G5EDF6 1-472; Q0G838 1-471; G5ED37 1-820; Q8I7G4 1-656” was run?
Answer: The colocalisation efficiency was 85%.

Question: And the colocalisation efficiency [2]?
Answer: Its colocalisation efficiency is 81%.
